Data from article PMC12401179, “Biophysical characterization and ion transport with cell‐based and proteoliposome reconstitution assays of invertebrate K^+‐Cl^− cotransporters” (FEBS Open Bio, 2025).
One block for each molecule: values may come before it.

How the values were obtained:
[1] = target: Hydra vulgaris K+-Cl- cotransporter (HvKCC) (Hydra vulgaris); experiment: SEC-MALS; SEC-MALLS; protein at 1.0 mg/mL on Superdex 200 10/300 in 20 mM HEPES pH 7.4, 150 mM NaCl, 50 mM KCl, 0.015% DDM, 0.003% CHS, 5% glycerol; protein conjugate analysis (ASTRA 6); single measurement
DmKCC = target: T1, DmKCC (Drosophila melanogaster, UniProt Q7KVH5); experiment: K+ influx into proteoliposomes, fluorescent K+ probe (ION Potassium Green-2 TMA+); format: biochemical
T1 construct: gene kcc; full-length cDNA, N-terminal 8xHis and FLAG tags (no cleavage stated), Sf9 baculovirus expression, DDM/CHS Ni-NTA purified, reconstituted in azolectin proteoliposomes
T1 sequence (Q7KVH5 1-1028): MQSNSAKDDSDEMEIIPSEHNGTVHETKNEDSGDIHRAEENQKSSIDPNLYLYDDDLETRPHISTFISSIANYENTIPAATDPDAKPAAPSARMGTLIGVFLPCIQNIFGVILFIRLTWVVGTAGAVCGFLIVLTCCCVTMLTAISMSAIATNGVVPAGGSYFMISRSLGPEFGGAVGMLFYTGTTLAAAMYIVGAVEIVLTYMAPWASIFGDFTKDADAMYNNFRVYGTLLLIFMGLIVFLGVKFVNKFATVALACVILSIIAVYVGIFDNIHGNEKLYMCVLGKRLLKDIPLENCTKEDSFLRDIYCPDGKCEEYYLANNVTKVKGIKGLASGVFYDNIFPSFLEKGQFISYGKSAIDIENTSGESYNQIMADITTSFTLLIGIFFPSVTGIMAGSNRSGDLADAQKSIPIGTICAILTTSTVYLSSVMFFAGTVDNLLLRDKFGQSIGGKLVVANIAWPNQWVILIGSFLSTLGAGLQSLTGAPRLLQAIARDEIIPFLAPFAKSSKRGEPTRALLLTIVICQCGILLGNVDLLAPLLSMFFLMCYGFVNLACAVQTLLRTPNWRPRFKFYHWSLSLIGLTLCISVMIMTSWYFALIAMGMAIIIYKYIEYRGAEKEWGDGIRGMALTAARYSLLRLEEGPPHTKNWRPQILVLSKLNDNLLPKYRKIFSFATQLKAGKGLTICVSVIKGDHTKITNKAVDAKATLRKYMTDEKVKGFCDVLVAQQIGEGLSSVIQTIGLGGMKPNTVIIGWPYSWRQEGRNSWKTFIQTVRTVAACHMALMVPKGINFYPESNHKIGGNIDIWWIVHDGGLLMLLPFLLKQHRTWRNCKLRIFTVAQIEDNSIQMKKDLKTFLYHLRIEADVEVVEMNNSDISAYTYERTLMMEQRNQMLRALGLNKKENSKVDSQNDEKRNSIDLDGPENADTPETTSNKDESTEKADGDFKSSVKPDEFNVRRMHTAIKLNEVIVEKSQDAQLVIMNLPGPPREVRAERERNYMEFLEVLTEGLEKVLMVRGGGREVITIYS

[2] = target: Drosophila melanogaster K+-Cl- cotransporter (DmKCC) variant B (Drosophila melanogaster); experiment: SEC; Superdex 200 10/300 gel filtration in 20 mM HEPES pH 7.4, 150 mM NaCl, 50 mM KCl, 0.015% DDM, 0.003% CHS, 5% glycerol; elution profile compared with that of HvKCC, whose dimer was verified by SEC-MALLS

- stoichiometry N [1]: 2
Molecule: Hydra vulgaris K+-Cl- cotransporter (HvKCC) (natural protein)

Molecule: O=S(=O)(O)c1cc(N=C=S)ccc1C=Cc1ccc(N=C=S)cc1S(=O)(=O)O [DIDS, 4,4′‐diisothiocyano‐2,2′‐stilbenedisulfonic acid]
- IC50 (DmKCC): 25 nM

- stoichiometry N [2]: 2
Molecule: Drosophila melanogaster K+-Cl- cotransporter (DmKCC) variant B (natural protein)
